± gives the standard deviation of the averaged measurements.
B1: library; a variant is named by its letters at N, in order (parent)
chain: GCUGUCACCGGUGUAUUACCCUAGUGGUCGACCGGUCUGAUGAGUCUNNNNNNAGACGAAACAGC

Tests used:
[1] = variants of: B1; test: normalized RNA/DNA level with ligand (relative to sTRSVctl = 100) (log10 (% of sTRSVctl)); ligand: hypoxanthine (xanthine aptamer); higher = less ribozyme self-cleavage, higher mRNA level; settings: ligand concentration (+) RNA-Seq: 5 mM, HEK293T, reporter: mCherry (pCS4076), ligand present: yes
Summary of the method: (§1)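 HEK293T cells were transfected with library plasmids carrying ribozyme switches linked to an mCherry reporter, or an eGFP reporter in some ligand experiments, at 4 µg per well of a 6-well plate, with any ligand added 1 h beforehand. After 72 h, total RNA was extracted with EDTA, reverse-transcribed, amplified, barcoded and sequenced. RNA level was defined as RNA reads over DNA reads, normalized to a spiked-in non-cleaving sequence or to the top-ranked sequences. That value was multiplied by 100 and converted to log10, the top set was 25 sequences, and only sequences with ≥100 DNA reads were retained.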

[2] = variants of: B1; test: normalized RNA/DNA level without ligand (relative to sTRSVctl = 100) (log10 (% of sTRSVctl)); ligand: hypoxanthine (xanthine aptamer); higher = less ribozyme self-cleavage, higher mRNA level; settings: HEK293T, reporter: mCherry (pCS4076), ligand present: no
Summary of the method: as §1

GCUGCC
normalized RNA/DNA level with ligand (log10) [1]: 1.96 ± 0.15 | normalized RNA/DNA level without ligand (log10) [2]: 1.83 ± 0.093

GCUGCU
normalized RNA/DNA level with ligand (log10) [1]: 1.92 ± 0.076 | normalized RNA/DNA level without ligand (log10) [2]: 1.884 ± 0.013

CGACUC
normalized RNA/DNA level with ligand (log10) [1]: 2.06 ± 0.027 | normalized RNA/DNA level without ligand (log10) [2]: 2.006 ± 0.0054

CGACUG
normalized RNA/DNA level with ligand (log10) [1]: 1.94 ± 0.023 | normalized RNA/DNA level without ligand (log10) [2]: 1.828 ± 0.012

CGACUA
normalized RNA/DNA level with ligand (log10) [1]: 1.95 ± 0.079 | normalized RNA/DNA level without ligand (log10) [2]: 1.698 ± 0.0058

CGACUU
normalized RNA/DNA level with ligand (log10) [1]: 1.9958 ± 0.0011 | normalized RNA/DNA level without ligand (log10) [2]: 1.896 ± 0.012

CGACGU
normalized RNA/DNA level with ligand (log10) [1]: 1.956 ± 0.0063 | normalized RNA/DNA level without ligand (log10) [2]: 1.86 ± 0.075

CGACGA
normalized RNA/DNA level with ligand (log10) [1]: 1.93 ± 0.064 | normalized RNA/DNA level without ligand (log10) [2]: 1.803 ± 0.0041

AGAAAG
normalized RNA/DNA level with ligand (log10) [1]: 1.82 ± 0.039 | normalized RNA/DNA level without ligand (log10) [2]: 1.41 ± 0.029

UGAACG
normalized RNA/DNA level with ligand (log10) [1]: 1.91 ± 0.034 | normalized RNA/DNA level without ligand (log10) [2]: 1.823 ± 0.0083

UGAACC
normalized RNA/DNA level with ligand (log10) [1]: 1.9742 ± 0.00065 | normalized RNA/DNA level without ligand (log10) [2]: 1.92 ± 0.057

GGAGCC
normalized RNA/DNA level with ligand (log10) [1]: 1.92 ± 0.062 | normalized RNA/DNA level without ligand (log10) [2]: 1.854 ± 0.0083

CGACCA
normalized RNA/DNA level with ligand (log10) [1]: 1.99 ± 0.045 | normalized RNA/DNA level without ligand (log10) [2]: 1.85 ± 0.053

CGACCU
normalized RNA/DNA level with ligand (log10) [1]: 1.98 ± 0.032 | normalized RNA/DNA level without ligand (log10) [2]: 1.92 ± 0.056

CGACCG
normalized RNA/DNA level with ligand (log10) [1]: 1.905 ± 0.0089 | normalized RNA/DNA level without ligand (log10) [2]: 1.92 ± 0.023

CGACCC
normalized RNA/DNA level with ligand (log10) [1]: 2.03 ± 0.046 | normalized RNA/DNA level without ligand (log10) [2]: 1.98 ± 0.086

AGAUGC
normalized RNA/DNA level with ligand (log10) [1]: 1.96 ± 0.07 | normalized RNA/DNA level without ligand (log10) [2]: 1.72 ± 0.072

GGAAGU
normalized RNA/DNA level with ligand (log10) [1]: 1.91 ± 0.047 | normalized RNA/DNA level without ligand (log10) [2]: 1.7 ± 0.02

CGACAA
normalized RNA/DNA level with ligand (log10) [1]: 1.89 ± 0.061 | normalized RNA/DNA level without ligand (log10) [2]: 1.64 ± 0.012

CGACAG
normalized RNA/DNA level with ligand (log10) [1]: 1.93 ± 0.037 | normalized RNA/DNA level without ligand (log10) [2]: 1.68 ± 0.053

CGACAU
normalized RNA/DNA level with ligand (log10) [1]: 1.887 ± 0.012 | normalized RNA/DNA level without ligand (log10) [2]: 1.74 ± 0.021

ACUGUU
normalized RNA/DNA level with ligand (log10) [1]: 1.9396 ± 0.00019 | normalized RNA/DNA level without ligand (log10) [2]: 1.81 ± 0.05

ACUGUA
normalized RNA/DNA level with ligand (log10) [1]: 1.93 ± 0.062 | normalized RNA/DNA level without ligand (log10) [2]: 1.78 ± 0.036

ACUGUC
normalized RNA/DNA level with ligand (log10) [1]: 1.99 ± 0.026 | normalized RNA/DNA level without ligand (log10) [2]: 1.898 ± 0.0079

GGACCC
normalized RNA/DNA level with ligand (log10) [1]: 1.96 ± 0.065 | normalized RNA/DNA level without ligand (log10) [2]: 1.93 ± 0.023

GGACCU
normalized RNA/DNA level with ligand (log10) [1]: 1.98 ± 0.056 | normalized RNA/DNA level without ligand (log10) [2]: 1.9838 ± 0.0012

GGACCA
normalized RNA/DNA level with ligand (log10) [1]: 1.916 ± 0.0027 | normalized RNA/DNA level without ligand (log10) [2]: 1.881 ± 0.0056

CGAUGA
normalized RNA/DNA level with ligand (log10) [1]: 1.93 ± 0.018 | normalized RNA/DNA level without ligand (log10) [2]: 1.79 ± 0.057

CGAUGU
normalized RNA/DNA level with ligand (log10) [1]: 1.98 ± 0.04 | normalized RNA/DNA level without ligand (log10) [2]: 1.878 ± 0.016
